Experimental data: the supplement of paper PMC10567573

B1: FAM98B (parent)
chain: QLDKNSEVYQEVQAMFDTLGIPKS

Variants of: B1
Test: protein stability index of a GFP-peptide fusion (GPS, HEK-293T) (PSI 1-6); higher = more stable
Settings: c terminus: a fixed tail appended
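Also: lentivirally expressed fusions sorted by FACS into six bins by GFP to DsRed ratio, PSI derived from sequencing read proportions per bin multiplied by bin number.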

Protein stability index of substitutions, site by site:
A14: Y 3.22 | W 2.63 | K 3.03 | M 2.89 | L 2.83 | I 3.22 | E 3.79 | H 3.14 | F 2.64 | C 3.04 | S 3.37 | N 4.67 | G 2.58 | R 2.55 | T 3.34 | P 3.81 | Q 3.61 | D 3.82 | V 2.77
T18: A 3.34 | S 2.85 | I 2.79 | E 3.57 | C 2.59 | F 3.52 | Q 3.24 | W 2.02 | L 2.97 | V 2.57 | K 2.25 | M 2.78 | N 3.13 | H 3.07 | G 3.25 | R 3.33 | P 3.38 | Y 2.67 | D 3.87
E11: Q 2.3 | Y 2.7 | F 2.07 | H 3.46 | V 2.56 | R 3.38 | M 2.36 | T 3.13 | C 2.48 | I 1.67 | S 2.62 | D 2.86 | G 2.78 | L 2.28 | N 2.64 | A 2.86 | K 1.69 | P 2.88 | W 1.27
Y9: M 3.66 | P 3.57 | F 2.72 | D 4.2 | L 3.2 | H 3.55 | V 3.27 | E 4.4 | A 4.12 | T 4.39 | W 3.31 | K 3.72 | Q 3.98 | N 3.52 | G 3.5 | C 3.58 | S 3.78 | I 3.67 | R 3.12
Q13: K 2.55 | E 3.34 | H 3.03 | G 3.09 | P 3.27 | V 3.15 | I 3.19 | T 3.86 | W 2.24 | C 2.88 | N 2.56 | L 3.29 | D 3.82 | F 2.53 | R 2.59 | A 3.58 | M 2.73 | S 3.24 | Y 2.36
V12: G 4 | I 3.04 | P 3.34 | A 3 | H 3.42 | N 3.53 | K 3.22 | W 3.85 | Y 2.56 | Q 3.56 | L 3.1 | C 3.36 | F 3.48 | S 2.77 | R 2.8 | E 3.5 | D 4.19 | M 3.29 | T 3.52
L19: W 2.45 | S 3.46 | E 3.58 | K 3.32 | G 3.49 | V 3.56 | A 3.64 | C 3.69 | P 3.17 | R 3.7 | T 3.59 | I 3.06 | M 3.15 | Y 3.6 | N 3.38 | Q 3.76 | H 3.71 | F 2.85 | D 2.85
K23: E 4.21 | M 3.38 | F 2.59 | W 2.3 | T 3.24 | N 3.54 | Y 2.71 | G 3.17 | S 3.24 | I 2.15 | A 3.26 | L 2.46 | R 3.38 | H 3.33 | Q 3.41 | D 3.82 | P 3.47 | C 3.06 | V 3.4
F16: Q 4.11 | T 3.78 | W 2.1 | L 3.12 | K 4.07 | N 3.77 | H 2.58 | M 3.3 | I 2.79 | Y 3.57 | C 3.38 | A 3.82 | R 2.92 | G 3.78 | E 4.36 | P 4.42 | V 3.94 | S 3.42
I21: V 3.51 | N 3.41 | Q 3.64 | L 4 | F 3.3 | Y 3 | T 3.69 | W 3.6 | A 3.72 | D 3.8 | S 3.34 | H 3.4 | G 3.69 | M 3.27 | C 3.53 | P 3.6 | K 3.58 | R 2.76 | E 4.21
Q10: L 2.18 | G 3.01 | N 3.07 | T 3.1 | H 2.75 | C 2.63 | V 2.08 | R 2.29 | E 3.57 | W 2.3 | P 2.73 | S 3.58 | K 2.53 | Y 2.49 | I 1.39 | M 2.73 | F 2 | A 3.01 | D 3.75
D17: W 1.57 | H 2.43 | E 3.42 | T 3.12 | N 3.73 | V 2.38 | G 3.08 | K 2.77 | I 1.83 | L 2.23 | A 2.92 | P 3.49 | S 3.14 | C 2.64 | F 3.27 | R 2.71 | Y 2.02 | M 2.5 | Q 2.86
G20: Q 2.98 | A 3.04 | H 2.55 | I 3.21 | C 2.63 | S 3.75 | Y 3.02 | N 3.97 | L 3.2 | W 3 | D 3.74 | K 3.62 | R 2.44 | M 2.5 | T 3.15 | V 2.86 | E 3.77 | P 3.01 | F 3.04
M15: P 3.27 | F 3.5 | D 3.68 | W 3.55 | R 3.34 | L 2.94 | T 3.25 | I 3.24 | G 3.69 | V 2.91 | C 2.73 | Q 3.56 | H 3.08 | S 3.22 | E 4.28 | N 3.1 | A 2.88 | Y 2.55 | K 3.32
P22: C 3.11 | M 3.37 | K 3.38 | S 4.04 | D 4.05 | Q 2.62 | H 2.87 | L 2.03 | A 3.48 | Y 2.54 | N 3.38 | E 4.15 | F 2.12 | T 3.48 | R 4.78 | G 2.53 | I 2.78 | W 2.98 | V 3.16
S24: H 2.99 | V 2.61 | I 2.67 | P 2.79 | A 2.88 | G 3.61 | M 2.69 | C 2.44 | Y 2.36 | T 2.48 | K 2.96 | W 2.99 | Q 3.25 | R 2.5 | D 4.28 | N 3.56 | E 3.47 | L 2.46 | F 3
